In patent publication US20110262386A1, “METHODS OF TREATING INFLAMMATION” (CAROLUS THERPEUTICS, INC., priority 2008, published 2011):

Experiments:
[1] = biological target: CXCR4-bearing Jurkat cells (Homo sapiens, UniProt P61073)
MonoMac6 cells = assay: Monocytic cell arrest under flow on CHO/ICAM-1 cells; assay type: cell-based; details: exposure 2 h, flow conditions
Procedure: (§1) Arrest of calcein-AM (Molecular Probes)-labeled monocytes, T cells and L1.2 transfectants was quantified in parallel-wall chambers in flow (1.5 dynes/cm^2, 5 min) (Schober, A., at al. (2004) Circulation 109, 380-385; Osterman, G., at al. (2002) Nat. Immunol. 3, 151-158; Weber, C., at al. (1996) J. Cell Biol. 134, 1063-1073).

[2] = test system: primary human effector T cells; assay: T-cell arrest under flow on aortic endothelial cells; assay type: cell-based; details: immobilized on aortic endothelial cells
Procedure: as §1

[3] = test system: primary human neutrophils; assay: Calcium mobilization in neutrophils (Fluo-4 AM); assay type: cell-based
[4] = test system: primary human neutrophils; assay: Transwell chemotaxis of neutrophils; assay type: cell-based
Procedure: (§2) Pore sizes and intervals were 5 μm and 3 h (monocytes), 3 μm and 1.5 h (T cells), and […] and 1 h (neutrophils).

primary human monocytes [5] = assay: Transwell chemotaxis of monocytes; assay type: cell-based
Procedure: as §2

αLβ2 (LFA-1) = assay: αLβ2 integrin activation assay (327C reporter antibody, flow cytometry); assay type: cell-based; details: MonoMac6 cells and human blood monocytes; persisted over 30 min
Source text: LFA-1 activation analyzed by flow cytometry is reported as the increase in mean fluorescent intensity (MFI) or relative to the positive control (Shamri, R., at al. (2005) Nat. Immunol. 6, 497-506).

CXCR2 [6] = assay: Calcium mobilization in L1.2 CXCR2 transfectants; assay type: cell-based
CCR5 = biological target: T1, CCR5 (Homo sapiens, UniProt P51681); assay: CCR5 internalization in L1.2 CCR5 transfectants; assay type: cell-based
T1 construct: host or cells: L1.2 pre-B lymphoma cells
T1 sequence (P51681 whole entry): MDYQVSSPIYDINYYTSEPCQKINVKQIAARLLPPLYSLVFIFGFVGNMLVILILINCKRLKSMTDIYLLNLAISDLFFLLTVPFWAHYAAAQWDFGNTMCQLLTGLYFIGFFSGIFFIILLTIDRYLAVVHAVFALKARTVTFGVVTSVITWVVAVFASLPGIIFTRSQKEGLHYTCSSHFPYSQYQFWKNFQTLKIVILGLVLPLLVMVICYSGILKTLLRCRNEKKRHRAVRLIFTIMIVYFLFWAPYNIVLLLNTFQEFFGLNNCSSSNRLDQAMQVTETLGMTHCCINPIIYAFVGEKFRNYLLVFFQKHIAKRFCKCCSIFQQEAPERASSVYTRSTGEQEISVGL
Procedure: (§3) Internalization was calculated relative to surface expression of buffer-treated cells (100% control) and isotype control staining (0% control): geometric MFI[experimental]−MFI[0% control]/MFI[100% control]−MFI[0% control]×100.

[7] = test system: mice with wild-type bone marrow; assay: Model of acute peritonitis (MIF-induced); assay type: in vivo, mouse; details: after 4 h
Procedure: After 4 h, peritoneal lavage was performed and Gr-1^+CD115^−F4/80^− neutrophils were quantified by flow cytometry using the relevant conjugated antibodies.

[8] = test system: postcapillary venules of cremaster muscle; assay: Cremaster microcirculation model, intravital microscopy; assay type: in vivo, mouse; details: MIF injected adjacent to the muscle
Procedure: After 4 h, intravital microscopy (Zeiss Axioplan; 20×) was performed in postcapillary venules (Gregory, J. L., at al. (2004) Arthritis Rheum. 50, 3023-3034; Keane, M. P., at al. (2004) J. Immunol. 172, 2853-2860). Adhesion was measured as leukocytes stationary for more than 30 s, emigration as the number of extravascular leukocytes per field.

primary human monocytes [9] = assay: Monocyte arrest under flow on human aortic endothelial cells; assay type: cell-based; details: endothelial cells pretreated 2 h, flow conditions
Procedure: as §1

CXCR2 [10] = biological target: T2, CXCR2 (Homo sapiens, UniProt P25025); assay: CXCR2 internalization assay, HEK293-CXCR2; assay type: cell-based; details: FACS of surface CXCR2, stable HEK293 transfectants
T2 construct: expressed in transfected cells
T2 sequence (P25025 1-360): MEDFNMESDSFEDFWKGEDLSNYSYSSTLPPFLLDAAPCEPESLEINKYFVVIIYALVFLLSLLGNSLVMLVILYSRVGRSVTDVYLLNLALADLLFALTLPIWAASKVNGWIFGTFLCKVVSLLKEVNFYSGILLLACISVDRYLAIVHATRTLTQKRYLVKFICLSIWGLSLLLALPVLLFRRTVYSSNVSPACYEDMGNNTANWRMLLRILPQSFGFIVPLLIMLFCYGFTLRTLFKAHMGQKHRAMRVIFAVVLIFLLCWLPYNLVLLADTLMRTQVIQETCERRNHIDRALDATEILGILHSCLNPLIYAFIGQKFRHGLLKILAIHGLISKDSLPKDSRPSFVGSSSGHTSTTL
Procedure: as §3

[11] = test system: human aortic (or venous) endothelial cells; assay: Real-time PCR and ELISA of arrest chemokines in endothelial cells; assay type: cell-based; details: 2-h-long preincubation
Procedure: RNA was reverse-transcribed using oligo-dT primers. RTPCR was performed using QuantiTect Kit with SYBRGreen (Qiagen), specific primers and an MJ Opticon2 (Biozym). CXCL8 was quantified by Quantikine ELISA (R&D).

[12] = test system: primary CD3+ T lymphocytes; assay: Transwell chemotaxis of T cells; assay type: cell-based, human; details: CD3+ T lymphocytes devoid of CXCR1 and CXCR2
Procedure: as §2

[13] = 12 weeks, compared with vehicle controls

CXCR4-bearing Jurkat cells, sequence (P61073 whole entry): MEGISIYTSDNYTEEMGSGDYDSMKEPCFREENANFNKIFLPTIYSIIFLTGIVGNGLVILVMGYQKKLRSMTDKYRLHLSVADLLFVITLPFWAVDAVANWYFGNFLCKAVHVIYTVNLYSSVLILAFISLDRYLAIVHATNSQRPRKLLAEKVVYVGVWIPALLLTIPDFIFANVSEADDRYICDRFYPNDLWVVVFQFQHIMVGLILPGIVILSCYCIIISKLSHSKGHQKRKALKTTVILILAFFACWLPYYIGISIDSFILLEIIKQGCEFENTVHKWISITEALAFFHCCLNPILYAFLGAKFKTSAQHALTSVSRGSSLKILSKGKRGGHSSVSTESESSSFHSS

How did the “effect on specific binding of fluorescein-MIF to CXCR4-bearing Jurkat cells” value [1] turn out when c1ccc(CNCc2ccc(CN3CCCNCCNCCCNCC3)cc2)nc1 [AMD3465] was run?
The value was “inhibited”.

And the “lesion formation in oil red O-stained aortic root sections” value (Apoe−/− mice; [13])?
Its value is “significantly exacerbates lesion formation”.

What about the “lesion formation in thoracoabdominal aortas prepared en face” value (Apoe−/− mice; [13]) of the same molecule?
The value was “significantly exacerbates lesion formation”.

And the “relative number of circulating neutrophils” value (Apoe−/− mice; further increases during disease progression)?
The value was “expansion in the relative number of circulating neutrophils”.

And the peripheral blood leukocytes (Apoe−/− mice; within 2 days, sustained throughout the study period)?
The peripheral blood leukocytes was “pronounced peripheral blood leukocytosis”.

“CXCL8: Chemokine from PeproTech; cognate CXCR2 ligand [reference compound]” was tested. Which “monocytic cell arrest on pretreated CHO/ICAM-1 transfectants” value (MonoMac6 cells) did it give?
The value was “increased monocytic cell arrest”.

Which “arrest of primary human effector T cells” value [2] does the source give for “CXCL12: Chemokine from PeproTech; known CXCR4 ligand and T-cell chemoattractant [reference compound]” here?
The value was “triggered the arrest”.

B1: MIF: Recombinant MIF, expressed and purified as described; pro-inflammatory cytokine, ligand for CXCR2, CXCR4 and CD74 (protein)
chain: PMFIVNTNVPRASVPDGFLSELTQQLAQATGKPPQYIAVHVVPDQLMAFGGSSEPCALCSLHSIGKIGGAQNRSYSKLLCGLLAERLRISPDRVYINYYDMNAANVGWNNSTFA
Which “calcium influx in neutrophils” value [3] does the source give for B1 here?
The value was “induced calcium influx”.

And the “chemotactic activity on neutrophils” value [4]?
The value was “exerted CXCR2- but not CXCR1-mediated chemotactic activity”.

And the “MIF concentration that induced optimal chemotaxis” value (primary human monocytes [5])?
Its value is 2 to 4 nM.

And the “optimum concentration of bell-shaped dose-response curve of monocyte migration” value (primary human monocytes [5]; MIF in lower chamber)?
The value was 25 to 50 ng/mL.

And the “earliest time of αLβ2 activation after exposure” value (αLβ2 (LFA-1))?
The value was 1 min.

What about the “calcium influx in CXCR2 transfectants” value (CXCR2 [6]) of the same molecule?
The value was “dose-dependently induced calcium influx, and was slightly less potent and effective than CXCL8 or CXCL7”.

And the “arrest of primary human effector T cells” value [2]?
Its value is “triggered the arrest”.

And the “monocytic cell arrest on pretreated CHO/ICAM-1 transfectants” value (MonoMac6 cells)?
The value was “increased monocytic cell arrest”.

And the CCR5 internalization (CCR5)?
The CCR5 internalization was “unable to induce CCR5 internalization”.

What about the “neutrophil recruitment after intraperitoneal injection” value [7] of the same molecule?
The value was “elicited neutrophil recruitment”.

And the “leukocyte adhesion and emigration in postcapillary venules” value [8]?
Its value is “marked increase”.

And the “arrest of primary human monocytes on pretreated endothelial cells” value (primary human monocytes [9])?
The value was “substantially increased”.

And the CXCR2 internalization (CXCR2 [10])?
The CXCR2 internalization was “induced CXCR2 internalization”.

And the “upregulation of arrest chemokines known to engage CXCR2 (CXCL1, CXCL8)” value [11]?
The value was “failed to upregulate”.

What about the “induction of T-cell transmigration” value [12] of the same molecule?
Its value is “dose-dependently induced transmigration”.
